Experimental data reported in patent US20220088221A1, “SELF-ASSEMBLED PEPTIDE NANOPARTICLE AND USE THEREOF” (THE METHODIST HOSPITAL, priority 2019, published 2022).
“Also recorded” adds a separate entry of the source. Where two headings read alike, the source gives them in different places.

Assay: Self-assembly and size of CPP-peptide/TLR ligand nanoparticles (DLS, AFM)
Type: physicochemical
Description: FIG. 3A-1, FIG. 3A-2, FIG. 3B-1, FIG. 3B-2, FIG. 3C-1 and FIG. 3C-2 show self-assembled nanoparticles of TAT-TRP2 with CpG and MPLA (CM for short). […] AFM analysis indicates the size of cross section of the nanoparticle;
Grey bars indicate unstable/polydispersed complex with large PDI (PDI>0.5);
While both CPP-antigen peptide (10 mM) and CpG (10 mM) were soluble in PBS, but once mixed (1:1), precipitations or aggregates were observed. These aggregates were round nanoparticles, with a diameter of […] in size. The self-assembly was believed to occur through electric interaction of positively charged CPPs with negatively charged molecules, as well as hydrophobic interaction between the peptides themselves and monophosphoryl lipid A (MPLA).
MPLA and poly I:C were completely dissolved in sterile ultrapure water at a concentration of 1 mg/mL. To prepare the TAT-peptide vaccine nanoparticles, CpG, MPLA, and poly I:C of indicated volume (shown in Table 3) were mix thoroughly in ultrapure water or buffer by intensive vortex.
Self-assembly of the TAT-peptide nanoparticles was triggered by dropwise addition of TAT-peptide with ultrasonication in iced water bath within 1 min. […] The hydrophobic C-terminus of TRP2 peptide forms a hydrophobic core together with the MPLA via hydrophobic interactions.
Grey bars indicate unstable/polydispersed complexes with large PDI (PDI>0.5).

| Sequence | complex / nanoparticle formation with CpG and MPLA (AFM) | complex / nanoparticle formation with CpG and MPLA (AFM) (listed as TRP2) |
| --- | --- | --- |
| SYVDFFVWL [TRP2 peptide] | failed to form complex with CpG-MPLA and formed long fibers; also recorded: failed to form complexes | could not form a particle |
| YGRKKRRQRRRSYVDFFVWL [TAT-TRP2] | formed tight complexes |  |
